Laboratory results published in patent US20090203610A1, “METHODS OF TREATING OBESITY OR DIABETES USING NT-4/5” (RINAT NEUROSCIENCE CORPORATION, priority 2004, published 2009).

Assays:
[1] = system: db/db mice; experiment: Serum transaminase (AST, ALT) activity in db/db mice (Example 1)
Experimental: Test animals: 24 female 10-12 weeks old db/db mice (C57BL/Ks J Rj-db/db, Janvier, France), weighing in the target range of 40-50 g, were used in this study. These mice were housed in a temperature (19.5-24.5° C.) and relative humidity (45-65%) controlled room with a 12-hour light/dark cycle, with ad libitum access to filtered tap-water and irradiated pelleted laboratory chow (SAFE, France) throughout the study. Upon receipt at animal facilities, they were housed 4 per cage covered with filtered caps and at least a 5-day acclimation period was observed.
The mice were divided into three groups of 8 mice each (groups 1-3). Each group was treated with vehicle (PBS) subcutaneously (s.c.), 3 mg/kg Rosiglitazone orally (p.o.), or 20 mg/kg NT-4/5 subcutaneously (s.c.). From day 1 to day 5 (T1-T5) and then from day 8 to day 12 (T8-T12), the mice in groups 2 and 3 were dosed once daily for 5 consecutive days, with a volume of 10 ml/kg.
Collection of samples for analysis: One day before beginning the treatment (T0), non fasted db/db mice were weighed and blood samples were collected through the retro-orbital plexus (about 300 μL/mouse) under isoflurane anesthesia. Similarly, at day 5 (T5), day 12 (T12), day 19 (T19) and day 26 (T26), two hours after the last administration, blood samples were collected through the retro-orbital plexus under isoflurane anesthesia in non fasted mice.
Analysis of blood samples in db/db mice: Pre- and post dose serum levels of glucose, HbA1c, cholesterol and triglycerides, insulin, and non esterified fatty acids (NEFA), as well as aspirate amino-transferase (AST) and alanine amino-transferase activities (ALT) activities, were determined at different time points, as described further herein. At each time point and for each parameter, a mean % of the effect was calculated according to the following formula: ((T final−T initial)/T initial)*100. Statistical analysis was consistent in a one-way analysis of variance followed by multiple comparisons versus the vehicle group (Dunnett's test) on final values. In case the equal variance test fails, a Kruskall-Wallis one-way analysis of variance on ranks was conducted. A difference was considered significant for p<0.05.
Aspartate amino-transferase (AST) and alanine amino-transferase (ALT) activities were determined with an AST kit (ref. 442665, Beckman Coulter, France), an ALT kit (ref. 442620, Beckman Coulter, France), using a Synchron CX4 analyzer.

[2] = system: db/db mice; experiment: Triglyceride after two weeks daily s.c. NT-4/5 in db/db mice (Example 2); assay type: in vivo; conditions: day 14; 2, 5, 10 or 20 mg/kg s.c. daily for two weeks
Experimental: In another experiment, db/db mice were subcutaneously injected with vehicle (PBS) or NT-4/5 at 2 mg/kg, 5 mg/kg, 10 mg/kg, or 20 mg/kg daily for two weeks.

[3] = system: db/db mice; experiment: Dose response of NT-4/5 on body weight and percentage change in body weight of db/db mice (Example 2, Tables 16, 17); assay type: in vivo; set-up: body weight: unit not given here; conditions: for body weight / percentage change in body weight: db/db mice, 12 week, female, mean
Experimental: Db/db mice maintained as described in Example 1 were divided into five groups (groups 1-5). Group 1 (7 mice) were administered with vehicle (PBS). Group 2 (7 mice), group 3 (8 mice), group 4 (8 mice), group 5 (8 mice) were each administered with NT-4/5 at the doses of 2 mg/kg, 5 mg/kg, 10 mg/kg, and 20 mg/kg, respectively. Both the vehicle and NT-4/5 were administered to each group of the mice subcutaneously once daily for five days. One day before beginning the treatment (T0), blood samples were collected from the mice as described previously for the determination of baseline levels of serum biomarkers (glucose, triglyceride, and cholesterol). Similarly, at day 6 (T6), blood samples were collected for the determination of serum biomarker levels. The blood samples were treated in the same manner as described in Example 1.
From two days before the treatment (T-1) to day 6 (T6), individual food intakes of the mice were measured daily. Individual body weights were also measured daily from 6 days before the treatment (T-5) to day 7 (T7).

[4] = system: DIO mice; experiment: Body weight after intravenous NT-4/5 in DIO mice, separate study (Example 5); assay type: in vivo; conditions: i.v. 5 mg/kg on day 1 and day 4
Source text: Two way ANOVA followed by Bonferroni's post-test were used for statistical analysis.

[5] = system: NONcNZO-10 polygenic obese mice; experiment: Non-fasting blood triglyceride level in NONcNZO-10 mice (Example 4, Table 18); assay type: in vivo
Source text: Test animals: 40 male NONcNZO-10 polygenic obese mice obtained from Jackson Laboratory at 10 weeks of age weighing in the range of 26-32 g were used in this study.
Administration of NT-4/5: NT-4/5 was produced in E. coli as descried in U.S. Pat. No. 6,184,360. The mice were divided into 6 groups of equivalent body weight and baseline blood glucose distribution (6-7 mice per group). […] A “paired-fed” control group received daily injection of vehicle, but were only fed with the same amount of food the 3 mg/kg group consumed the previous day. On the day when the treatment started (day 1), a baseline blood samples were collected for measuring glucose and triglyceride. Triglyceride level was measured on day 10. At the end of the study (day 12), a terminal blood sample was collected to determine glucose, triglyceride, electrolytes (Na, K, Cl), testoterone, corticosterone, thyroid hormone (total T4) and thyroid stimulating hormone (TSH) levels. Electrolytes, free testosterone, T4 and TSH levels of serum samples were measured by AniLytics (Gaithesburg, M.D) according to the standard protocols employed by the vendor. Other analytes were measured as described above. Body weight, food intake were monitored 5 days per week through out the entire study. Daily water intake was measured from day 5 through day 7.

[6] = system: lean C57BL/6 mice; experiment: Body weight, food intake, nonfasting blood glucose, triglyceride in normal lean C57BL/6 mice (Example 11); assay type: in vivo; conditions: for weight loss as compared to the vehicle control group: female C57BL/6 mice, day 2
Experimental: Test animals: Mice with normal diet were used in this study.
Administration of NT-4/5: NT-4/5 was produced as described in U.S. Pat. No. 6,184,360. The mice were divided into 5 groups of equivalent baseline body weight, food intake and nonfasting blood glucose level distribution (8 mice per group). Each group received 4 daily subcutaneous doses of vehicle, 1 mg/kg, 2 mg/kg, 5 mg/kg or 10 mg/kg of NT-4/5, respectively, from day 1 to day 4. Body weight and food intake were monitored on daily basis. The non-fasting blood glucose was measure as previously described once a week (day 1 and day 8).

[7] = system: Sprague-Dawley rats; experiment: Heat/thermal hyperalgesia, latency for foot withdrawal (Example 13); assay type: in vivo
Experimental: To test whether NT-4/5 elicits pain in animals after NT-4/5 administration, a heat/thermal hyperalgesia animal model was used for testing. […] Then the latency for foot withdrawal in response to a constant radiant heat source was measured. See, Hargreaves et al., Neurology 48:501-505 (1997); Shu et al., Pain 80:463-470 (1999).

[8] = day 0, before treatment, NT-4/5 20 mg/kg s.c., Rosiglitazone 3 mg/kg p.o.
[9] = day 5, NT-4/5 20 mg/kg s.c., Rosiglitazone 3 mg/kg p.o.
[10] = day 5 vs day 0, NT-4/5 20 mg/kg s.c., Rosiglitazone 3 mg/kg p.o.
[11] = day 12, NT-4/5 20 mg/kg s.c., Rosiglitazone 3 mg/kg p.o.
[12] = day 12 vs day 0, NT-4/5 20 mg/kg s.c., Rosiglitazone 3 mg/kg p.o.
[13] = day 19, NT-4/5 20 mg/kg s.c., Rosiglitazone 3 mg/kg p.o.
[14] = day 19 vs day 0, NT-4/5 20 mg/kg s.c., Rosiglitazone 3 mg/kg p.o.
[15] = day 26, NT-4/5 20 mg/kg s.c., Rosiglitazone 3 mg/kg p.o.
[16] = day 26 vs day 0, NT-4/5 20 mg/kg s.c., Rosiglitazone 3 mg/kg p.o.
[17] = lean male mice, 1, 2, 5 and 10 mg/kg s.c. daily, dose dependent

Molecule: CN(CCOc1ccc(CC2SC(=O)NC2=O)cc1)c1ccccn1 (stereo not drawn) [Rosiglitazone, reference compound]
- ALT T0 [1, 8]: 157.5 IU/L
- ALT/AST ratio T0 [1, 8]: 1.00
- AST T0 [1, 8]: 185.8 IU/L
- ALT T5 [1, 9]: 172.3 IU/L
- ALT/AST ratio T5 [1, 9]: 1.03
- AST T5 [1, 9]: 174.0 IU/L
- ALT % effect T5-T0 [1, 10]: 12.7%
- ALT/AST ratio % effect T5-T0 [1, 10]: 16.4%
- AST % effect T5-T0 [1, 10]: 8.2%
- ALT T12 [1, 11]: 222.0 IU/L
- ALT/AST ratio T12 [1, 11]: 1.13
- AST T12 [1, 11]: 200.5 IU/L
- ALT % effect T12-T0 [1, 12]: 43.6%
- ALT/AST ratio % effect T12-T0 [1, 12]: 30.4%
- AST % effect T12-T0 [1, 12]: 19.9%
- ALT T19 [1, 13]: 179.0 IU/L
- ALT/AST ratio T19 [1, 13]: 1.31
- AST T19 [1, 13]: 148.5 IU/L
- ALT % effect T19-T0 [1, 14]: 16.6%
- ALT/AST ratio % effect T19-T0 [1, 14]: 52.2%
- AST % effect T19-T0 [1, 14]: −6.9%
- ALT T26 [1, 15]: 144.3 IU/L
- ALT/AST ratio T26 [1, 15]: 1.05
- AST T26 [1, 15]: 143.0 IU/L
- ALT % effect T26-T0 [1, 16]: −10.1%
- ALT/AST ratio % effect T26-T0 [1, 16]: 17.1%
- AST % effect T26-T0 [1, 16]: −13.8%

B1: NT-4/5: mature human neurotrophin-4/5 (SEQ ID NO:1), obtained from Genentech or produced in E. coli (protein, listed as Homo sapiens)
chain: GVSETAPASRRGELAVCDAVSGWVTDRRTAVDLRGREVEVLGEVPAAGGSPLRQYFFETRCKADNAEEGGPGAGGGGCRGVDRRHWVSECKAKQSYVRALTADAQGRVGWRWIRIDTACVCTLLSRTGRA
- triglyceride level as compared to vehicle [2]: Significant reduction
- body weight as compared to vehicle ([3]; 2, 5, 10 and 20 mg/kg): significantly decreased body weight
- body weight ([3]; NT-4/5 2 mg/kg, Day 1): 39.66
- percentage change in body weight ([3]; NT-4/5 2 mg/kg, Day 1): 101.83%
- body weight ([3]; NT-4/5 2 mg/kg, Day 3): 38.96
- percentage change in body weight ([3]; NT-4/5 2 mg/kg, Day 3): 98.27%
- body weight ([3]; NT-4/5 2 mg/kg, Day 5): 38.17
- percentage change in body weight ([3]; NT-4/5 2 mg/kg, Day 5): 96.24%
- body weight ([3]; NT-4/5 2 mg/kg, Day 7): 37.50
- percentage change in body weight ([3]; NT-4/5 2 mg/kg, Day 7): 94.57%
- body weight ([3]; NT-4/5 2 mg/kg, Day −1): 38.94
- body weight ([3]; NT-4/5 5 mg/kg, Day 1): 41.03
- percentage change in body weight ([3]; NT-4/5 5 mg/kg, Day 1): 101.51%
- body weight ([3]; NT-4/5 5 mg/kg, Day 3): 39.26
- percentage change in body weight ([3]; NT-4/5 5 mg/kg, Day 3): 95.71%
- body weight ([3]; NT-4/5 5 mg/kg, Day 5): 38.48
- percentage change in body weight ([3]; NT-4/5 5 mg/kg, Day 5): 93.79%
- body weight ([3]; NT-4/5 5 mg/kg, Day 7): 37.00
- percentage change in body weight ([3]; NT-4/5 5 mg/kg, Day 7): 90.15%
- body weight ([3]; NT-4/5 5 mg/kg, Day −1): 40.41
- body weight ([3]; NT-4/5 10 mg/kg, Day 1): 39.99
- percentage change in body weight ([3]; NT-4/5 10 mg/kg, Day 1): 101.07%
- body weight ([3]; NT-4/5 10 mg/kg, Day 3): 38.49
- percentage change in body weight ([3]; NT-4/5 10 mg/kg, Day 3): 96.28%
- body weight ([3]; NT-4/5 10 mg/kg, Day 5): 37.35
- percentage change in body weight ([3]; NT-4/5 10 mg/kg, Day 5): 93.43%
- body weight ([3]; NT-4/5 10 mg/kg, Day 7): 36.04
- percentage change in body weight ([3]; NT-4/5 10 mg/kg, Day 7): 90.14%
- body weight ([3]; NT-4/5 10 mg/kg, Day −1): 39.58
- body weight ([3]; NT-4/5 20 mg/kg, Day 1): 40.73
- percentage change in body weight ([3]; NT-4/5 20 mg/kg, Day 1): 100.31%
- body weight ([3]; NT-4/5 20 mg/kg, Day 3): 39.10
- percentage change in body weight ([3]; NT-4/5 20 mg/kg, Day 3): 96.01%
- body weight ([3]; NT-4/5 20 mg/kg, Day 5): 37.71
- percentage change in body weight ([3]; NT-4/5 20 mg/kg, Day 5): 92.60%
- body weight ([3]; NT-4/5 20 mg/kg, Day 7): 36.00
- percentage change in body weight ([3]; NT-4/5 20 mg/kg, Day 7): 88.38%
- body weight ([3]; NT-4/5 20 mg/kg, Day −1): 40.60
- reduction of body weight [4]: about 5%
- time reduced body weight maintained after the second dose [4]: at least 10 days
- non-fasting blood triglyceride levels ([5]; daily subcutaneous injection): significantly reduced
- non-fasting blood triglyceride level ([5]; lowest dose 0.1 mg/kg/day s.c.): significantly reduced
- weight loss as compared to the vehicle control group ([6]; 5 mg/kg): about 8%
- weight loss as compared to the vehicle control group ([6]; 10 mg/kg): about 11%
- blood triglyceride [6, 17]: significantly reduced blood triglyceride
- body weight [6, 17]: significantly reduced the body weight
- food intake ([6]; lean male mice, 1, 5 and 10 mg/kg s.c. daily, dose dependent): significantly reduced food intake
- nonfasting blood glucose ([6]; lean male mice, 2, 5 and 10 mg/kg s.c. daily, dose dependent): significantly reduced nonfasting blood glucose
- pain ([7]; 2 mg/kg): did not cause pain
- changes of latency for foot withdrawal in response to radiant heat ([7]; 2 mg/kg s.c., 3, 5 and 24 hour after administration): No statistically significant changes
- effect on AST and/or ALT levels, or AST/ALT ratios ([1]; 20 mg/kg s.c.): did not have significant effect
- ALT/AST ratio T0 [1, 8]: 1.17
- ALT/AST ratio T5 [1, 9]: 0.73
- ALT/AST ratio % effect T5-T0 [1, 10]: −32.7%
- ALT/AST ratio T12 [1, 11]: 0.87
- ALT/AST ratio % effect T12-T0 [1, 12]: −26.6%
- ALT/AST ratio T19 [1, 13]: 0.67
- ALT/AST ratio % effect T19-T0 [1, 14]: −45.6%
- ALT/AST ratio T26 [1, 15]: 0.99
- ALT/AST ratio % effect T26-T0 [1, 16]: −17.6%
